A short description of this data set: protein stability index of a GFP-peptide fusion (GPS, HEK-293T) (PSI 1-6); higher = more stable. The settings on record: c terminus: a fixed tail appended.

± gives the standard deviation.
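Note: 24-mer peptide tiles fused after GFP, lentivirally expressed, FACS-sorted into six equal bins by GFP/DsRed ratio, decoded by Illumina sequencing, PSI is the read-weighted mean bin number.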

On to AAAHYTGDKASPDQNASTHTPQSS [CLINT1], for which the protein stability index runs as follows: (treatment: DMSO) 5.52 ± 0.25; (treatment: MLN4924 1 uM, 8 h) 5.524 ± 0.042.

Regarding AAFGHVQRAEMLPKTSGTRATSLG [CPOX], the protein stability index turned out to be 3.82 ± 0.18 (treatment: DMSO) and 3.91 ± 0.077 (treatment: MLN4924 1 uM, 8 h).

As to AAGYIQCMHEVHTFVSTCQAIDAT [HES6], the protein stability index reads like this: (treatment: DMSO) 1.93 ± 0.6; (treatment: MLN4924 1 uM, 8 h) 2.12 ± 0.37.

Regarding AALSASMASLLEDLSHIEGLSQAP [SERTAD1], the protein stability index was 2.81 ± 0.22 (treatment: DMSO) and 2.76 ± 0.26 (treatment: MLN4924 1 uM, 8 h).

AANEQLTRAILRERICSEEERAKA [CHCHD3]: the protein stability index by setting is: (treatment: DMSO) 4.82 ± 0.23; (treatment: MLN4924 1 uM, 8 h) 4.97 ± 0.19.

For the sequence AAWQGHLPIVKLLAKQPGVSVNAQ [RIPK4], the protein stability index (treatment: DMSO) came to 2.57 ± 0.38 and the protein stability index (treatment: MLN4924 1 uM, 8 h) turned out to be 3.07 ± 0.61.

With ADCVRGPDGVCLSGGRGPQGDKAI [PBXIP1], the protein stability index is, setting by setting: (treatment: DMSO) 4.52 ± 0.57; (treatment: MLN4924 1 uM, 8 h) 4.78 ± 0.22.

For ADNKIVSHLLVAEPEKIYAMPDPT [ESRRG], the protein stability index (treatment: DMSO) was found to be 4.23 ± 0.17 and the protein stability index (treatment: MLN4924 1 uM, 8 h) turned out to be 4.22 ± 0.27.

On to ADRPFSAPWWFWLSLTGVSLAGAL [POMT2], for which the protein stability index runs as follows: (treatment: DMSO) 2.93 ± 0.7; (treatment: MLN4924 1 uM, 8 h) 3 ± 0.48.

Regarding AEPAPRAREGGGCGRSEVRPVAPR [SMAD6], the protein stability index reads like this: (treatment: DMSO) 4.35 ± 0.093; (treatment: MLN4924 1 uM, 8 h) 4.15 ± 0.4.

For the sequence AFACQVAGCCQVFDALDDYEHHYH [ZNF511], the protein stability index came out at 2.97 ± 0.45 (treatment: DMSO) and 2.74 ± 0.5 (treatment: MLN4924 1 uM, 8 h).

On to AFCSSDEELEDSKALLYLPIAPEV [RBBP5], for which the protein stability index was determined as 3.7 ± 0.21 (treatment: DMSO) and 3.66 ± 0.28 (treatment: MLN4924 1 uM, 8 h).

As for AFELLGKNTFEFLKENNFQPYPLP [CLK3], the protein stability index runs as follows: (treatment: DMSO) 2.51 ± 0.33; (treatment: MLN4924 1 uM, 8 h) 2.65 ± 0.086.

AFHDGQRSRLRPRDDLDRLGVFLD [TRIM14]: the protein stability index is 3.35 ± 0.26 (treatment: DMSO) and 3.66 ± 0.31 (treatment: MLN4924 1 uM, 8 h).

Regarding AGEAHMAADGETNGSCENSDASSH [EHMT1], the protein stability index (treatment: DMSO) stood at 5.55 ± 0.36 and the protein stability index (treatment: MLN4924 1 uM, 8 h) worked out at 5.69 ± 0.15.

Regarding AGFQDIPKRCLKAREHFGTVKTHL [TSN], the protein stability index is, setting by setting: (treatment: DMSO) 2.81 ± 0.44; (treatment: MLN4924 1 uM, 8 h) 2.78 ± 0.24.

As for AGMGKVTSASFGEESTPGQTNSET [HDAC6], the protein stability index reads like this: (treatment: DMSO) 5.3 ± 0.29; (treatment: MLN4924 1 uM, 8 h) 5.25 ± 0.1.

AGSPIRHENAVQGSAVEVQTYQPP [ISL2]: the protein stability index is, setting by setting: (treatment: DMSO) 4.91 ± 0.14; (treatment: MLN4924 1 uM, 8 h) 5.04 ± 0.19.

AGSSLPTSSKVNATVPSNMMSVNG [ACBD3]: the protein stability index reads like this: (treatment: DMSO) 4.13 ± 0.19; (treatment: MLN4924 1 uM, 8 h) 4.16 ± 0.14.

Regarding AHTATASAVEGAPPARPRPRSPEC [IRX6], the protein stability index (treatment: DMSO) is 5.37 ± 0.13 and the protein stability index (treatment: MLN4924 1 uM, 8 h) stood at 5.19 ± 0.28.

As to AICGDRATGKHYGASSCDGCKGFF [HNF4A], the protein stability index runs as follows: (treatment: DMSO) 2.8 ± 0.24; (treatment: MLN4924 1 uM, 8 h) 2.98 ± 0.31.

Sequence AIEGIPGSDYVNANYIDGYRKQNA [PTPRD] displayed a protein stability index (treatment: DMSO) of 4.09 ± 0.24 and a protein stability index (treatment: MLN4924 1 uM, 8 h) of 4.6 ± 0.12.

On to AKKAMGYQPLVTMDDAMERTVQSF [NSDHL], for which the protein stability index reads like this: (treatment: DMSO) 3.62 ± 0.069; (treatment: MLN4924 1 uM, 8 h) 3.46 ± 0.39.

As to AKVLTLSDDLERTIEERVNILFDF [EIF5], the protein stability index stood at 2.33 ± 0.36 (treatment: DMSO) and 2.4 ± 0.21 (treatment: MLN4924 1 uM, 8 h).

For the sequence AKYEYMEEQVILTEKDLLEDGFGE [SAT1], the protein stability index runs as follows: (treatment: DMSO) 4.02 ± 0.4; (treatment: MLN4924 1 uM, 8 h) 4.06 ± 0.37.

Take ALEALEPFWEVLVRSTETVERDNM [HDAC6]: the protein stability index (treatment: DMSO) was 2.95 ± 0.23 and the protein stability index (treatment: MLN4924 1 uM, 8 h) came to 3.12 ± 0.45.

Take ALKLFPVQPCSAVHLLLKKVLFAL [FAM189A2]: the protein stability index reads like this: (treatment: DMSO) 2.39 ± 0.17; (treatment: MLN4924 1 uM, 8 h) 2.35 ± 0.35.

In turn, ALLDLHFPSDHLGDLGDPFHLGLE [TFE3] had a protein stability index (treatment: DMSO) of 2.37 ± 0.36 and a protein stability index (treatment: MLN4924 1 uM, 8 h) of 2.32 ± 0.28.

As to ALLSCCLTVVSFYQVAALQGDLAS [TNFSF13B], the protein stability index by setting is: (treatment: DMSO) 3.57 ± 0.21; (treatment: MLN4924 1 uM, 8 h) 3.2 ± 0.26.

For the sequence ALPDSVLRRFVVRTMCAVLGLVAR [AUP1], the protein stability index runs as follows: (treatment: DMSO) 2.51 ± 0.21; (treatment: MLN4924 1 uM, 8 h) 2.32 ± 0.44.

On to ALPKATILDLSCNKLTTLPSDFCG [LRRC59], for which the protein stability index is, setting by setting: (treatment: DMSO) 2.82 ± 0.16; (treatment: MLN4924 1 uM, 8 h) 3.02 ± 0.28.

Turning to ALRKTGQYSGMLDCARRILAREGV [SLC25A25], the protein stability index reads like this: (treatment: DMSO) 2.29 ± 0.18; (treatment: MLN4924 1 uM, 8 h) 2.27 ± 0.15.

Sequence ALSRKKSQGLAREQHAGTSEGLHL [FBF1] had a protein stability index (treatment: DMSO) of 4.26 ± 0.28 and a protein stability index (treatment: MLN4924 1 uM, 8 h) of 3.78 ± 0.42.

As to ALVHDHQAYAHYLLATFPRRALAP [ANKRD9], the protein stability index was determined as 2.22 ± 0.21 (treatment: DMSO) and 2.4 ± 0.19 (treatment: MLN4924 1 uM, 8 h).

Regarding ALWKHLKSMHREELEKSGHGQAGQ [ZBED2], the protein stability index was 2.98 ± 0.38 (treatment: DMSO) and 3.48 ± 0.43 (treatment: MLN4924 1 uM, 8 h).

Consider ANAVISVSGINHDVTSGDHGDYFR [CPN1], for which the protein stability index reads like this: (treatment: DMSO) 3.58 ± 0.13; (treatment: MLN4924 1 uM, 8 h) 3.48 ± 0.31.

Values taken from the supplement of paper PMC10567573.
